Measured values published in patent publication US20240018502A1.
Substitutions are numbered along the chain they refer to. In names and notes the source's numbering stands.

B1: MTSP-1 I41R/ins97aE/F97T/T98G/F99L/C122S/G151N/Q175T/Q192E (enzyme)
chain: VVGGTDADEGEWPWQVSLHALGQGHRCGASLISPNWLVSAAHCYIDDRGFRYSDPTQWTAFLGLHDQSQRSAPGVQERRLKRIISHPFFNDTEGLDYDIALLELEKPAEYSSMVRPISLPDASHVFPAGKAIWVTGWGHTQYGGTNALILQKGEIRVINQTTCENLLPQTITPRMMCVGFLSGGVDSCEGDSGGPLSSVEADGRIFQAGVVSWGDGCAQRNKPGVYTRLPLFRDWIKENTGV
B2: MTSP-1 I41R/F97T/ins97aE/T98G/F99L/C122S/G151E/Q175T/Q192E (enzyme)
chain: B1 chain with N146E
B3: MTSP-1 Y59F/ins97aE/F97T/T98G/F99L/C122S/Q175L/Q192E (enzyme)
chain: B1 chain with R26I, Y44F, N146G, T170L
B4: MTSP-1 ins97aE/F97T/T98G/F99L/C122S/I136M/L155M/N170D/Q175L/Q192E (enzyme)
chain: B1 chain with R26I, I132M, N146G, L150M, N165D, T170L
B5: MTSP-1 ins97aV/F97D/T98P/F99L/C122S/Q192G (enzyme)
chain: B1 chain with R26I, T92D, E93V, G94P, N146G, T170Q, E189G
B6: MTSP-1 I41R/ins97aE/F97T/T98G/F99L/C122S/G151N/Q175T/Q192D (enzyme)
chain: B1 chain with E189D
B7: MTSP-1 I41R/Y59F/ins97aE/F97T/T98G/F99L/C122S/L153Q/Q175L/Q192E (enzyme)
chain: B1 chain with Y44F, N146G, L148Q, T170L
B8: MTSP-1 ins97aE/F97T/T98G/F99L/C122S/L153Q/Q175L/Q192D (enzyme)
chain: B1 chain with R26I, N146G, L148Q, T170L, E189D
B9: MTSP-1 ins97aE/F97Y/T98S/F99L/C122S/Q192T/D217Q/K224R (enzyme)
chain: B1 chain with R26I, T92Y, G94S, N146G, T170Q, E189T, D215Q, K222R
B10: MTSP-1 F97Q/ins97aT/T98M/C122S/Q192E/D217R/K224L (enzyme)
chain: B1 chain with R26I, T92Q, E93T, G94M, L95F, N146G, T170Q, D215R, K222L
B11: MTSP-1 I41R/F97T/ins97aE/T98G/F99L/C122S/G151D/Q175I/Q192E (enzyme)
chain: B1 chain with N146D, T170I
B12: MTSP-1 ins97aD/F97G/T98N/F99L/C122S/Q192E/D217Y/K224R (enzyme)
chain: B1 chain with R26I, T92G, E93D, G94N, N146G, T170Q, D215Y, K222R
B13: MTSP-1 I41D/ins97aE/F97T/T98G/F99L/C122S/G151N/Q175L/Q192E (enzyme)
chain: B1 chain with R26D, T170L
B14: MTSP-1 I41R/ins97aE/F97T/T98G/F99L/C122S/G151N/Q175S/Q192D (enzyme)
chain: B1 chain with T170S, E189D
B15: MTSP-1 F97N/ins97aT/T98Y/F99N/C122S (enzyme)
chain: B1 chain with R26I, T92N, E93T, G94Y, L95N, N146G, T170Q, E189Q
B16: MTSP-1 I41R/F97T/ins97aE/T98G/F99L/C122S/G151N/Q175S/Q192E (enzyme)
chain: B1 chain with T170S
B17: MTSP-1 ins97aG/F97N/T98D/F99L/C122S/Q192E/D217H/K224A (enzyme)
chain: B1 chain with R26I, T92N, E93G, G94D, N146G, T170Q, D215H, K222A
B18: MTSP-1 Y59F/D96V/ins97aE/F97T/T98G/F99L/C122S/Q175L/Q192E (enzyme)
chain: B1 chain with R26I, Y44F, D91V, N146G, T170L
B19: MTSP-1 ins97aD/F97Q/T98G/F99L/C122S/Q175L/Q192E/D217F/K224S (enzyme)
chain: B1 chain with R26I, T92Q, E93D, N146G, T170L, D215F, K222S
B20: MTSP-1 F97M/ins97aD/T98D/F99L/C122S/Q192T (enzyme)
chain: B1 chain with R26I, T92M, E93D, G94D, N146G, T170Q, E189T
B21: MTSP-1 E24K/ins97aE/F97T/T98G/F99L/C122S/A152S/Q175L/Q192D (enzyme)
chain: B1 chain with E9K, R26I, N146G, A147S, T170L, E189D
B22: MTSP-1 D96V/ins97aE/F97T/T98G/F99L/C122S/Q175L/Q192D (enzyme)
chain: B1 chain with R26I, D91V, N146G, T170L, E189D
B23: MTSP-1 Y59F/F97T/ins97aE/T98G/F99L/C122S/Q175L/Q192D (enzyme)
chain: B1 chain with R26I, Y44F, N146G, T170L, E189D
B24: MTSP-1 I41D/ins97aE/F97T/T98G/F99L/C122S/Q175L/Q192E (enzyme)
chain: B1 chain with R26D, N146G, T170L
B25: MTSP-1 F97D/ins97aV/T98P/F99L/C122S/G151N/Q192G (enzyme)
chain: B1 chain with R26I, T92D, E93V, G94P, T170Q, E189G
B26: MTSP-1 I41R/Y59F/G60dS/R84H/ins97aE/F97T/T98G/F99L/C122S/Q175L/Q192E/V212I (enzyme)
chain: B1 chain with Y44F, G49S, R79H, N146G, T170L, V210I
B27: MTSP-1 ins97aD/F97T/T98S/F99L/C122S/Q192E/D217Y/K224R (enzyme)
chain: B1 chain with R26I, E93D, G94S, N146G, T170Q, D215Y, K222R
B28: MTSP-1 I41R/F97T/ins97aE/T98G/F99L/C122S/G151N/Q175I/Q192D (enzyme)
chain: B1 chain with T170I, E189D
B29: MTSP-1 ins97aN/F97H/T98D/F99L/C122S/Q192E/D217Q/K224S (enzyme)
chain: B1 chain with R26I, T92H, E93N, G94D, N146G, T170Q, D215Q, K222S
B30: MTSP-1 ins97aA/F97G/T98N/F99L/C122S/Q175M/Q192T/K224A (enzyme)
chain: B1 chain with R26I, T92G, E93A, G94N, N146G, T170M, E189T, K222A
B31: MTSP-1 I41R/Y59F/ins97aE/F97T/T98G/F99L/C122S/Q175L/Q192D (enzyme)
chain: B1 chain with Y44F, N146G, T170L, E189D
B32: MTSP-1 Y59F/ins97aE/F97T/T98G/F99L/C122S/L153Q/Q175L/Q192E (enzyme)
chain: B1 chain with R26I, Y44F, N146G, L148Q, T170L
B33: MTSP-1 I41R/ins97aE/F97T/T98G/F99L/C122S/Q175L/Q192E (enzyme)
chain: B1 chain with N146G, T170L
B34: MTSP-1 Y59F/G60dS/R84H/ins97aE/F97T/T98G/F99L/C122S/Q175L/Q192E/V212I (enzyme)
chain: B1 chain with R26I, Y44F, G49S, R79H, N146G, T170L, V210I
B35: MTSP-1 I41R/F97T/ins97aE/T98G/F99L/C122S/G151N/Q175I/Q192E (enzyme)
chain: B1 chain with T170I
B36: MTSP-1 I41R/ins97aE/F97T/T98G/F99L/C122S/G151D/Q175I/Q192D (enzyme)
chain: B1 chain with N146D, T170I, E189D
B37: MTSP-1 ins97aV/F97Q/T98P/F99L/C122S/Q175F/Q192D (enzyme)
chain: B1 chain with R26I, T92Q, E93V, G94P, N146G, T170F, E189D
B38: MTSP-1 ins97aE/F97T/T98G/F99L/C122S/Q175L/Q192E/Q209L (enzyme)
chain: B1 chain with R26I, N146G, T170L, Q207L
B39: MTSP-1 S90T/D96A/ins97aE/F97T/T98G/F99L/C122S/Q175L/Q192D (enzyme)
chain: B1 chain with R26I, S85T, D91A, N146G, T170L, E189D
B40: MTSP-1 I41R/ins97aE/F97T/T98G/F99L/C122S/G151S/Q175L/Q192E (enzyme)
chain: B1 chain with N146S, T170L
B41: MTSP-1 I41R/ins97aE/F97T/T98G/F99L/A112V/C122S/Q175L/Q192E (enzyme)
chain: B1 chain with A108V, N146G, T170L
B42: MTSP-1 H40P/I41R/F99L/C122S/G151E/Q192G (enzyme)
chain: VVGGTDADEGEWPWQVSLHALGQGPRCGASLISPNWLVSAAHCYIDDRGFRYSDPTQWTAFLGLHDQSQRSAPGVQERRLKRIISHPFFNDFTLDYDIALLELEKPAEYSSMVRPISLPDASHVFPAGKAIWVTGWGHTQYGGTEALILQKGEIRVINQTTCENLLPQQITPRMMCVGFLSGGVDSCGGDSGGPLSSVEADGRIFQAGVVSWGDGCAQRNKPGVYTRLPLFRDWIKENTGV
B43: MTSP-1 H40R/I41H/Y60gF/F97D/F99L/C122S/Q175K/Q192G/D217R/K224Q (enzyme)
chain: B42 chain with P25R, R26H, Y52F, F92D, E145G, Q169K, D214R, K221Q
B44: MTSP-1 I41R/F97W/F99L/C122S/G151N/Q192G (enzyme)
chain: B42 chain with P25H, F92W, E145N
B45: MTSP-1 H40R/I41H/F97D/F99L/C122S/G151N/Q192N/D217L/K224R (enzyme)
chain: B42 chain with P25R, R26H, F92D, E145N, G188N, D214L, K221R
B46: MTSP-1 H40R/I41H/F97D/F99L/C122S/G151N/Q192H/D217K/K224A (enzyme)
chain: B42 chain with P25R, R26H, F92D, E145N, G188H, D214K, K221A

Molecular target: plasma purified human complement protein C3 (human) (UniProt P01024)
Sequence (P01024 23-667, chain 1 of 2): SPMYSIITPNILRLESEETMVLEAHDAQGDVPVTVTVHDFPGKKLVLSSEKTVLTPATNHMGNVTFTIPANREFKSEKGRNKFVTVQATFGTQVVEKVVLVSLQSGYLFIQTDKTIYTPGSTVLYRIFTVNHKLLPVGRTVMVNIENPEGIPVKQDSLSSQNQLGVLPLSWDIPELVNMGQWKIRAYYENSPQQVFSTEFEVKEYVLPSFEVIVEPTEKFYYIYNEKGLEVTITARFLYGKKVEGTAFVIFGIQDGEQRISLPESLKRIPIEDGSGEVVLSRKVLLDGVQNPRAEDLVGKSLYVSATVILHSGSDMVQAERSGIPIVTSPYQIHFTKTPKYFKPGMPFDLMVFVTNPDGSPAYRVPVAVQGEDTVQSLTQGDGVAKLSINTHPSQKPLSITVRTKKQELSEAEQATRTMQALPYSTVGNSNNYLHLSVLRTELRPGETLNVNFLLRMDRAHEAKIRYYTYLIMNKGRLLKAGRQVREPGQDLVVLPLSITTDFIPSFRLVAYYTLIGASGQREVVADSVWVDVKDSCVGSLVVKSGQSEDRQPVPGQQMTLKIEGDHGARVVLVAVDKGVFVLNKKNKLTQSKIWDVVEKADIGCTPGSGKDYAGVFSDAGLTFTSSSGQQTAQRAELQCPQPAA
Sequence (P01024 672-1663, chain 2 of 2): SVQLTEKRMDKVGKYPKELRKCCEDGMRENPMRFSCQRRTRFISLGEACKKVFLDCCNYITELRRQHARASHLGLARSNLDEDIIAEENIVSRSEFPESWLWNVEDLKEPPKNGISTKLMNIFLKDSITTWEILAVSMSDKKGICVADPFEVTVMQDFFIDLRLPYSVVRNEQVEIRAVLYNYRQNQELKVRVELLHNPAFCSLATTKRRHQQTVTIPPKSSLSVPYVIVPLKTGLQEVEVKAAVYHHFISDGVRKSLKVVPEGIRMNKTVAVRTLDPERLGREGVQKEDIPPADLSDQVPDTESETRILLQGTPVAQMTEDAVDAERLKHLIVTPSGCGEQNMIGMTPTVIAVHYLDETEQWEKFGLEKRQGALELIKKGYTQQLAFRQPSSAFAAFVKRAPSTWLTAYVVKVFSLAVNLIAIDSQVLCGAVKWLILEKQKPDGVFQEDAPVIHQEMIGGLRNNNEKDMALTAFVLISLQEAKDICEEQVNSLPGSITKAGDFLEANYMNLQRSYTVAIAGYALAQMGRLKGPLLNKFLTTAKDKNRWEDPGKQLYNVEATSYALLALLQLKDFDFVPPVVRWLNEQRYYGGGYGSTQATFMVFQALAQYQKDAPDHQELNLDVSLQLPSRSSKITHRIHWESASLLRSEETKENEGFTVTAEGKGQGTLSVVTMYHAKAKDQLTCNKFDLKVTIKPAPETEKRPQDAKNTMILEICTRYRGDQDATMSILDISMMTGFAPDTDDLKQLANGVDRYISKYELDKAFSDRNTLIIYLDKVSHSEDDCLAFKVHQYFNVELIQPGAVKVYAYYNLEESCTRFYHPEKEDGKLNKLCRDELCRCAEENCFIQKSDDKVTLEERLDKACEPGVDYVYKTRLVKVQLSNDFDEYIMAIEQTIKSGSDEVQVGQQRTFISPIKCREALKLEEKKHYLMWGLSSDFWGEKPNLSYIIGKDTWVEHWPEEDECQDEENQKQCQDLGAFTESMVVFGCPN
Assay: cell-based or functional assay

Binder | EC50 of hC3 cleavage [nM]
B1 | 1410
B2 | 363
B3 | 341
B4 | 429
B5 | 53.5
B6 | 9990
B7 | 253
B8 | 332
B9 | 249
B10 | 2450
B11 | 2070
B12 | 9870
B13 | 148
B14 | 2080
B15 | 184
B16 | 267
B17 | 2790
B18 | 293
B19 | 5560
B20 | 151
B21 | 291
B22 | 258
B23 | 289

Binder | EC50 of hC3 cleavage [nM]
B24 | 157
B25 | 87
B26 | 143
B27 | 5000
B28 | 8370
B29 | 2750
B30 | 200
B31 | 288
B32 | 237
B33 | 523
B34 | 102
B35 | 1030
B36 | 1750
B37 | 248
B38 | 383
B39 | 280
B40 | 274
B41 | 288
B42 | 153
B43 | 93.4
B44 | 97.3
B45 | 346
B46 | 137
